Experiment: soluble on expression in E. coli; label from the status in PepcDB or PDB records

Question: Which “soluble on expression in E. coli” value does the source give for “MSLENFRSNVRKPTMSLQIAVEKVRWLAAGLLELNGCDADIAQDVAEHMIEAERYGFASHGVTLLPKYLENIARGDVTANARPECLTSEGNLQRFHAHNGFGQHAGKVAVNAAIEQAKRRGFCLLTLCHAHHLGRMGHYGQMVADQGLAMLAMSNVTGRPALVAPWGGAEPRMTTNPFCFAWPFSDGRPPILVDFATSSMALNKARVMSSTGKQAAPGQLIDAQGNPSNDPGVLFSNPPGALLPFGEHKGFGLALMIEMMAGILSGGDTIAEDHQTDGSAHNHLFALIIDPDQFTDLAGEKGQFFADYLLATQPQPGGNPVIYPGMPEAANRERNAKMITIPVSFWSWVVEHYARKGIDLGLHPQESALAEGHHHHHH” here?
Answer: soluble

Question: For “MGSDKIHHHHHHADKHDHKGQTPLVEVDGNFLYKEDLQAVLPAGLSKDDSLLFAEHYVRSWVEDVLLFNQAQSNIPDNGEIDKLVENYRKALIMHTYQQELISQKLSGEIPEQEIADYYEKNKELFKLDRPLMKGLFIKVPLTAPQLGNVRKWYKTETQDAVEHLEKYSLQNAVKYEYFYDKWVRVADVLDMIPLKAESPEAYMDKNRHIELKDTAFYYFLNISDFRVAGEQEPYEFAQPKVKDMLVNIKRVDFMKQVKDDLYERAVKRKKIINY”, which “soluble on expression in E. coli” value is on record?
Answer: not soluble

Question: For “GGLTEICRKPVSPGCISSVSDWLISIGLPMYAGTLSTAGFSTLSQVPSLSHTCLQEAGITEERHIRKLLSAARLFKLPPGPEAM”, which “soluble on expression in E. coli” value is on record?
Answer: soluble

Question: With “MGSDKIHHHHHHYYLIVSQLLGDTASVKLLVPPGANPHLFSLKPSDAKTLEEADLIVANGLGLEPYLEKYREKTVFVSDFIPALLLIDDNPHIWLDPFFLKYYIVPGLYQVLIEKFPEKQSEIKQKAEEIVSGLDTVIRDSFKALLPYTGKTVVMAHPSFTYFFKEFGLELITLSSGHEHSTSFSTIKEILRKKEQIVALFREPQQPAEILSSLEKELRMKSFVLDPLGVNGEKTIVELLRKNLSVIQEALK” as the sequence, how does the “soluble on expression in E. coli” value read?
Answer: not soluble

Question: For “MGSDKIHHHHHHMKNNFLVNFILLHGYSLDNSSLMFGKMGYSLILFEYSHYFKDALAEKHAFELLQEVLASPMKSNTFNEGKMGIAWSLIHLIEKEYIEADYLELYGQEHKEIVAFIKQLKTDMNNIVSKNDAISFLIASKSYIQESDFDEILPNLIENLYDYLKQIPKSLFERNLFYYHATKMLCLYNLYEELSIRGETLIDIIVQTHKKLISDKHVCTNISFGVNLLQYGLCHKRKDIIKLANAIIKCYFSNMVLETLNLKESIDAIYNLNKLQLLNKESEWTSLKKQLSSLLFNKESYLYKENRLTLSRLKGGIPQLLLMECLNFQDIKSTGHYIMLK”, which “soluble on expression in E. coli” value is on record?
Answer: not soluble

Question: With “MSLKVYITYGTADFLKTIVQKHPSENILLMQGQENAILIHETNGDTVFQAPHAYEVIDQVGEIKHPGFAVLNNIAVTQEGRPLFENRFKNRAGKVENEPGFEAIRVLRPLDSDTYVILTLWETESAFQDWQQSGSYKEAHKKRDTSAGIDTTSIFSRPSYVTTYFAVEEGGSHHHHHH” as the sequence, how does the “soluble on expression in E. coli” value read?
Answer: soluble

Question: Which “soluble on expression in E. coli” value does the source give for “MDNHNKYSVRCQCGAVEVQLNNNPVVHAFCHCSDCRDLLNIPFHAVTAWNKNDAVIVKGEEELSIYKHPSLEMTRCFCKHCGETVFNTNVMDWRVISQLLISKCNNNEIPENLRSDKHFFYEQRVVDIQDELPKFSRGTDGPLYEDQH” here?
Answer: not soluble

Question: With “MGSDKIHHHHHHMKPLAYRMRPQSIDQVVGQQHLVGPKKIIRRMVEARQLSSMILYGPPGIGKTSIASAIAGSSKYAFRQLNAATDGQKELSQVAAEGKMSGTVVLLLDEIHRLNKVKQDFLLPLLESGQVIMIGATTENPYLAISPAIRSRCQIFELKPLTEEEILTAVDRALTDEERGLGKYHAKLTKEAGEFLAQKGNGDLRATLNSLELAVLSTKQELEAEGKDASSLTVTLDDMADSLQMKIQNFDADGDGHYDLLSAFQKSIRGSDTDAGLHYLGRLLESGDLVSICRRLSVIAYEDIGLANPPACERVILAVQAAQQLGLPEARIPLANAVIELCLSPKSNSAMTAIDAALADIRQSNVGQIPDQLKDAHYKGASKLGHGTGYLYPHDYPGDWVAQAYLPDRMQGKQYFAPKGESKFEAAFKSQYQRLHDLQKAGLKGK” as the sequence, how does the “soluble on expression in E. coli” value read?
Answer: not soluble

Question: Which “soluble on expression in E. coli” value does the source give for “MKFLLLLFPVLLLAKSPEKRSKVGIDEDNFLQLLEVEIARTLRSELSSDDDLQNLEGSSDSPEDDYLKKYDLILSSSTTSPKPITTTETTTRSTTTTTTTTTTTAAPSTTTSTVKITPKPLRSTPQCVPEKDCYKDSECPSGKCFGSELGLCDCNACITNKKCSSDLDCGGLRNGCDSNGNCDCVNAFHSHGYKLFVKVLLTFCHQTKCTKTSDNCYGLPCRVGKCKCFVGSLSVVTMCSRVLFVLLSTFTVLAGASVTCDLTQKPSTWAQVHAKNIFFNAYEPDNYFSLNGFCVNNDFMSHTLTYSSHVKLADSSVKVKTDVALNTNFDASLSNCGKDVSQVQWCQSHCQDKTLENVIVSSAVINGSLPLALAQQVFSTIGSPNDTSIASMQVDLNSQGVRIDYDYYDDFNFCSVYVKVKRPSMFPYALFITVQKIVGV” here?
Answer: not soluble

Question: With “MGSDKIHHHHHHMRNIPDQEEYFALLIEFDFEDFNDLPQNAGTSQNYVQGQLNPLLESALHQFIDFSLVAPPSAFKFRKRELLELIYYSGYTAIAKLNMNKSLSERVQTLISYHLSTELTAEFIAAQLFMSSSTLRRKLKSEGNSIQDIRNRVRLGHGLHLIQTTNNSIGNIAFECGYQSQSRFTEQFKNLFGITPRELRKTKMLT” as the sequence, how does the “soluble on expression in E. coli” value read?
Answer: not soluble

Question: With “MLLSKKSEYKTLSTVEHPQYIVFCDFDETYFPHTIDEQKQQDIYELEDYLEQKSKDGELIIGWVTGSSIESILDKMGRGKFRYFPHFIASDLGTEITYFSEHNFGQQDNKWNSRINEGFSKEKVEKLVKQLHENHNILLNPQTQLGKSRYKHNFYYQEQDEINDKKNLLAIEKICEEYGVSVNINRCNPLAGDPEDSYDVDFIPIGTGKNEIVTFMLEKYNLNTERAIAFGDSGNDVRMLQTVGNGYLLKNATQEAKNLHNLITDSEYSKGITNTLKKLIGFMRRKLEHHHHHH” as the sequence, how does the “soluble on expression in E. coli” value read?
Answer: soluble

Question: With “MSTLYHTCDKIEQRIIWIDCEMTGLDVEKQTLCEIALIVTDSELNTIATGPDIVIHQPKEVLDNMEEWPRNTFHENGLMEKIIASKYSMADAENEVIDFLKLHALPGKSPIAGNSIYMDRLFIKKYMPKLDKFAHYRCIDVSTIKGLVQRWYPDYKHPKKQCTHRAFDDIMESIAELKNYRESIFVKSTASSF” as the sequence, how does the “soluble on expression in E. coli” value read?
Answer: not soluble

Question: With “MGSDKIHHHHHHCKDNDDATGDFDPNKPVVISEFSPKEGGLGTRMLLYGENFGSDISKIKVTIGGQDSKVVGAKGKSLYCVVPAKAYDGDIKLSILNDEGEEIANTEANEKFVYQKKMLVTTFLGTMYDGNTKYDLKDGPFDDCGGFGGAVWLSFDPKNHNHLYLVGEQHPTRLIDFEKEYVSTVYSGLSKVRTICWTHEADSMIITNDQNNNDRPNNYILTRESGFKVITELTKGQNCNGAETHPINGELYFNSWNAGQVFRYDFTTQETTPLFTIQDSGWEFHIQFHPSGNYAYIVVVNQHYILRSDYDWKTKRLTTPYIVCGQQGAKDWVDGVGKKARMHAPRQGTFVKNPAYKGSSDEYDFYFCDRENHCIRILTPQGRVTTFAGRGSNGTSGYNDGDLRQEARFNHPEGIVYDEERECFFIGDRENRRIRKIGYEE” as the sequence, how does the “soluble on expression in E. coli” value read?
Answer: not soluble

Question: With “MATASQRNFLAVPDWLDAAILISDEQTSDIFDLAWDMDDFWVFGYGSLMWNPGFAFEERQQARLHGYRRSLCISSNFYRGTEEKPGLVLGLERGGSCLGVAFRVRGKDHDPVMAYLRERELVTNVYKERVVSIALANGRRGSAVTYVADPAHEQYIGGLGVAESAVIIAAATGRSGPNTDYLFNTVQHLQEMGIRDSLLESIAASVGTLSAQSAVVSLPLEHHHHHH” as the sequence, how does the “soluble on expression in E. coli” value read?
Answer: not soluble

Question: For “MKMSTKGRYGLRAMLDIAVNSKGDIVSVKSIAERQNISESYLEQVFSILRKAAIVKSIKGAQGGYVLADDPSNITVGKILRTLEGNLNVVDIDDRDSEVSKEEKCINEFVWNKINKSIDKVVDNITLGDLLREYQKLEDNSSVMYYI”, which “soluble on expression in E. coli” value is on record?
Answer: soluble

Question: For “MGERADTFLAHFNRIEKWMRERLNNPVNMGFSEMTRRLSRKEKGQIAQFEEDLLQMAQLRNAIVHERIADDFVIAEPNEWAVQRIETIEQALTKPEKVVPKFAKRVTAFEITTSLETLLTIIAKKQYSQFPIYEKGVFKGLITVRGIGVWFAIESTKGEVHIANRTVRELLASNYKRSNYQFVSIEATVFEVEQMFREQPRLEAVLISKSGHPNGELVGIVRPRDLASIHREKE”, which “soluble on expression in E. coli” value is on record?
Answer: not soluble

Question: With “DAVELFKKANAMLDEDEDERVDEAALRQLTEMGFPENRATKALQLNHMSVPQAMEWLIEHAEDPTIDTPL” as the sequence, how does the “soluble on expression in E. coli” value read?
Answer: soluble

From the DeepSol protein solubility set
